Results reported in US7582299B2, “Cripto-specific antibodies” (Biogen Idec MA Inc., priority 2001, dated 2009).

Columns and labels:
T-47D-CR cells = assay: Proliferation of T-47D-CR cells with Activin, with or without anti-Cripto mab; format: cell-based, human; conditions: low serum; FIG. 6
Procedure: (§1) T47D cells, maintained in RPMI/10% FCS/10 μg/ml insulin, at passage #2 from the ATCC were transfected with an expression plasmid for the Ecotropic Receptor (EcoR; B. Elenbaas) and selected in media containing 100 μg/ml hygromycin. Colonies of T-47D-EcoR that permitted infection of pBABE-GFP murine leukemia virus (MLV) were grown out, infected with pBABE-hCr-PURO-MLV and selected in puromycin media. This oligoclonal line (T-47D-hCr) was analyzed by FACS for hCr (human Cripto) expression with specific anti-Cripto antibodies. Approximately 4000 cells/well of T-47D-EcoR or T-47D-hCr were plated in a 96 well plate in media containing 2% serum with/without 25 ng/ml Activin B (R&D) or […] plus 0.1-50 μg/ml A8G3.5. Media with factors was replaced daily for 7-8 days. The plate was harvested by adding 20 μl/well CellTiter AQueous One solution (Promega), incubating 2 hours 37° C., and reading at 490 nm.
(§2) We grew T-47D and T-47D-EcoR cells in low serum conditions, with or without Activin A or B and assayed for proliferating cells using an MTT colorimetric assay.
We then tested whether antibodies of the invention can inhibit the Cripto-Activin B interaction. We treated T-47D-CR cells with Activin B in the presence of various antibodies of the invention. We observed that the growth suppressive activity of Activin B was restored in the presence of 10 or 20 μg/ml mab A8G3.5 (FIG. 7).

T-47D cells = assay: Proliferation of T-47D cells with Activin A or B (MTT); format: cell-based, human; conditions: low serum; compared to untreated cells; FIG. 6
Procedure: as §1, §2

CR-Fc [1] = biological target: T1, CR-Fc (Homo sapiens, UniProt P13385); assay: ELISA of CR-Fc on ligand-coated plates; format: binding; conditions: for inhibition of CR-Fc binding to Activin B coated plate: CR-Fc pre-incubated with ligand in solution, FIG. 9; for binding of CR-Fc to ligand-coated wells: ELISA plates coated with purified ligand, FIG. 8
T1 sequence (P13385 31-150): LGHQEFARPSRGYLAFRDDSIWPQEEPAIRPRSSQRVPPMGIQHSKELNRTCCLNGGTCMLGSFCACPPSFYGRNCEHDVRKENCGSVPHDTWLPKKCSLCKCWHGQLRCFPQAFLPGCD
Procedure: In still other experiments, we coated 96 well plates by adding to each well 100 μl of 3-5 μg/ml Activin B or another ligand in 50 mM carbonate (pH 9.5). We incubated the plates for 1 hr. at room temperature and blocked overnight with TBS/1% BSA overnight at 4° C. We incubated the plate with CR-Fc or ALK4-Fc in blocking buffer at room temperature, washed in TBST and probed with anti-human-AP (Jackson). We washed the plate in TBST, once in 10× substrate buffer (200 mM Tris-HCl, 10 mM MgCl2, pH 9.8) and added CSPD and Sapphire (Applied Biosystems).
We discovered that Cripto binds directly to Activin B. We coated ELISA plates with purified Activin B, Activin A, TGFβ1, GDNF or BMP2 and incubated with CR-Fc. We then added anti-Fc antibody conjugated to alkaline phosphatase and monitored binding by adding an alkaline phosphatase substrate and developing.

CR-Fc [2] = biological target: T1, CR-Fc; assay: Biacore, CR-Fc immobilized on chip; format: binding; conditions: for binding to CR-Fc immobilized on a Biacore chip: FIG. 10
Source text: We also analyzed the Cripto-Activin B interaction using Biacore. […] We also observed that Activin A binding to CR-Fc was negligible.

Row | Substance | response of T-47D-CR cell proliferation to Activin (T-47D-CR cells) | inhibition of proliferation of T-47D cells (T-47D cells) | inhibition of CR-Fc binding to Activin B coated plate (CR-Fc [1]) | binding of CR-Fc to ligand-coated wells (CR-Fc [1]) | binding to CR-Fc immobilized on a Biacore chip (CR-Fc [2]) | on rate of binding to Cripto (CR-Fc [2]; Biacore)
1 | Activin A: purified ligand protein tested on T-47D cells and for binding to CR-Fc | inhibited by Activin A | approximately 40% | only Activin B inhibits binding | not to Activin A | negligible | 
2 | Activin B: purified ligand protein (R&D) that binds Cripto and inhibits tumor cell proliferation | not responsive to Activin B | approximately 40% | only Activin B inhibits binding | bound to wells containing Activin B | directly binds CR-Fc immobilized on a Biacore chip with a high intensity | fast on rate
